± gives the standard deviation.

A short description of this data set: collision cross section of modified peptide (TIMS, N2, iRT-aligned); higher = larger / more extended gas-phase ion. The procedure, abridged:
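Synthetic peptide pools (~100 fmol/µL in 2% acetonitrile/0.1% formic acid, iRT standard spiked 1:40) were separated on a 120-min nanoflow C18 gradient at 60 °C. They were analysed on a timsTOF Pro/HT (dda-PASEF, nitrogen, ~2.4 mbar) and identified with MaxQuant. 1/K0 was calibrated with three reference ions and aligned run-wise to the median iRT peptide deviation. Collision cross section came from the Mason-Schamp equation, averaging 1–3 technical replicates of the most abundant feature per charge state.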

The mark [1] stands for this setting: charge state: 2, modification: Crotonyl.
Where [2] appears, read: charge state: 3, modification: Crotonyl.
Setting [3] is: charge state: 2, modification: hydroxyisobutyryl.
Setting [4] is: charge state: 3, modification: hydroxyisobutyryl.
Where [5] appears, read: charge state: 2, modification: Formyl.
Setting [6] is: charge state: 2, modification: Trimethyl (K).
The mark [7] stands for this setting: charge state: 3, modification: Trimethyl (K).
The mark [8] stands for this setting: charge state: 2, modification: Nitro (Y).
Where [9] appears, read: charge state: 2, modification: Methyl (K).
The mark [10] stands for this setting: charge state: 3, modification: Methyl (K).
[11] abbreviates: charge state: 2, modification: Hydroxyproline.
The mark [12] stands for this setting: charge state: 3, modification: Hydroxyproline.
[13] abbreviates: charge state: 3, modification: Succinyl.
The mark [14] stands for this setting: charge state: 2, modification: Biotin.
[15] abbreviates: charge state: 2, modification: Acetyl (K).
The mark [16] stands for this setting: charge state: 2, modification: HexNAc (ST).
[17] abbreviates: charge state: 3, modification: Methyl (R).
Where [18] appears, read: charge state: 2, modification: Malonyl.
Setting [19] is: charge state: 3, modification: Malonyl.
The mark [20] stands for this setting: charge state: 2, modification: Dimethyl (K).
[21] abbreviates: charge state: 3, modification: Dimethyl (K).
The mark [22] stands for this setting: charge state: 2, modification: GlyGly (K).
Setting [23] is: charge state: 3, modification: GlyGly (K).
[24] abbreviates: charge state: 2, modification: Propionyl.
Where [25] appears, read: charge state: 2, modification: Succinyl.
[26] abbreviates: charge state: 2, modification: Glutarylation.

With “DDSFLGKLGGTLAR [_DDSFLGK(Crotonyl)LGGTLAR_]”, the collision cross section is 415.37 ± 0.28 Å² under setting [1] and 492.69 Å² under setting [2]. As to “TQAYQDQKPGTSGLR [_TQAYQDQK(hydroxyisobutyryl)PGTSGLR_]”, the collision cross section is, setting by setting: under setting [3], 431.22 ± 0.52 Å²; under setting [4], 484.99 ± 2.8 Å². Consider LEEVTGKLQVAR [_LEEVTGK(Butyryl)LQVAR_], for which the collision cross section was found to be 398.95 ± 0.23 Å² (charge state: 2, modification: Butyryl) and 467.68 Å² (charge state: 3, modification: Butyryl). As to SGFGKFER [_SGFGK(Formyl)FER_], under setting [5], the collision cross section stood at 326.95 ± 0.99 Å². “YEEIVKEVSTYIK [_YEEIVK(Trimethyl (K))EVSTYIK_]”: the collision cross section reads like this: under setting [6], 455.74 ± 0.69 Å²; under setting [7], 498.32 ± 1.1 Å².

For “AIEINPDSAQPYK [_AIEINPDSAQPY(Nitro (Y))K_]”, the collision cross section under setting [8] was determined as 401.15 ± 0.18 Å². As for “VPTTEKPTVTVNFR [_VPTTEK(Methyl (K))PTVTVNFR_]”, the collision cross section runs as follows: under setting [9], 426.88 Å²; under setting [10], 510.49 ± 2 Å². Turning to “DAEAAEATAEGALKAEK [_DAEAAEATAEGALK(Formyl)AEK_]”, the collision cross section is 428.82 ± 0.71 Å² under setting [5] and 534.4 ± 0.57 Å² (charge state: 3, modification: Formyl). On to “GHPGPPGPPGEQGLPGLAGK [_GHPGPPGPP(Hydroxyproline)GEQGLPGLAGK_]”, for which the collision cross section runs as follows: under setting [11], 440.72 ± 0.83 Å²; under setting [12], 495.73 ± 18 Å². On to “DLGKFQVATDALK [_DLGK(Trimethyl (K))FQVATDALK_]”, for which the collision cross section was 414.1 ± 0.6 Å² under setting [6] and 492.6 ± 1.8 Å² under setting [7].

For “TTGFYSGFSEVAEKR [_TTGFYSGFSEVAEK(Crotonyl)R_]”, the collision cross section under setting [1] is recorded as 441.38 ± 0.77 Å². Sequence “VFIGNLNTLVVKKK [_VFIGNLNTLVVK(Succinyl)KK_]” gave a collision cross section under setting [13] of 514.83 ± 3.9 Å².

On to “VYIASSSGSTAIKK [_VYIASSSGSTAIK(Biotin)K_]”, for which the collision cross section under setting [14] was 429.83 Å². For the sequence LAEEENKAK [_LAEEENK(Acetyl (K))AK_], under setting [15], the collision cross section amounted to 348.53 ± 3.9 Å². On to “VMVAPISGSVTTGTK [_VMVAPIS(HexNAc (ST))GSVTTGTK_]”, for which the collision cross section under setting [16] is 423.51 ± 0.62 Å². Take SYVDTGGVSR [_SY(Nitro (Y))VDTGGVSR_]: under setting [8], the collision cross section came out at 342.4 ± 0.16 Å². In the case of PLRAASPFR [_PLR(Methyl (R))AASPFR_], the collision cross section was 351.73 ± 0.9 Å² (charge state: 2, modification: Methyl (R)) and 447.48 ± 3.2 Å² under setting [17]. Take SLFFGGKGAPLQR [_SLFFGGK(Formyl)GAPLQR_]: under setting [5], the collision cross section was found to be 399.67 ± 0.55 Å². “GAPGPQGPPGPPGK [_GAPGPQGPPGPP(Hydroxyproline)GK_]” came in with a collision cross section under setting [11] of 359.87 ± 0.26 Å². For the sequence “SSGPGGQNVNKVNSK [_SSGPGGQNVNK(Malonyl)VNSK_]”, the collision cross section is recorded as 402.61 ± 1.8 Å² under setting [18] and 439.94 ± 2.2 Å² under setting [19].

“AAINQKLIETGER [_AAINQK(Malonyl)LIETGER_]”: the collision cross section is, setting by setting: under setting [18], 404.84 ± 0.034 Å²; under setting [19], 473.19 Å². Consider “SGKFTQQDIDEAK [_SGK(Methyl (K))FTQQDIDEAK_]”, for which the collision cross section is 408.84 ± 1.9 Å² under setting [9] and 468.01 ± 3.6 Å² under setting [10]. Regarding “LLFSNTAAQKLR [_LLFSNTAAQK(Dimethyl (K))LR_]”, the collision cross section is on record as 419.08 ± 0.75 Å² under setting [20] and 473.77 ± 2.6 Å² under setting [21]. As to “GEAGPTGPQGEPGVRGIR [_GEAGPTGPQGEP(Hydroxyproline)GVRGIR_]”, the collision cross section under setting [12] is 499.21 ± 1.2 Å². In turn, “SYISSQTNDTHK [_S(HexNAc (ST))YISSQTNDTHK_]” registered a collision cross section under setting [16] of 405.45 ± 0.67 Å². On to “AAQASDLEKIHLDEK [_AAQASDLEK(hydroxyisobutyryl)IHLDEK_]”, for which the collision cross section under setting [3] worked out at 466.52 ± 0.88 Å² and the collision cross section under setting [4] amounted to 501.4 ± 2.8 Å².

Under setting [11], GITGKPGPK [_GITGKP(Hydroxyproline)GPK_] had a collision cross section of 315.51 ± 1.9 Å². As for “ANLEKAQAELVGTADEATR [_ANLEK(Trimethyl (K))AQAELVGTADEATR_]”, the collision cross section under setting [7] is reported as 528.43 ± 0.88 Å². In turn, “GFCFITYTDEEPVKK [_GFCFITYTDEEPVK(GlyGly (K))K_]” came in with a collision cross section under setting [22] of 487.35 ± 2.6 Å² and a collision cross section under setting [23] of 525.77 Å². Under setting [24], LAEEENKAK [_LAEEENK(Propionyl)AK_] showed a collision cross section of 352.31 ± 0.33 Å².

On to TLDEILQEKK [_TLDEILQEK(Biotin)K_], for which the collision cross section under setting [14] is 403.31 Å². Consider “GEPGIPAIPGIRGPK [_GEPGIP(Hydroxyproline)AIPGIRGPK_]”, for which the collision cross section worked out at 382.81 ± 0.54 Å² under setting [11] and 511.46 ± 1.2 Å² under setting [12]. As for “VGVEVPDVNIEGPEGKLK [_VGVEVPDVNIEGPEGK(Dimethyl (K))LK_]”, the collision cross section was found to be 456.47 ± 2.5 Å² under setting [20] and 540.33 ± 0.77 Å² under setting [21]. Turning to “GGPGSTLSFVGKR [_GGPGSTLSFVGK(Propionyl)R_]”, the collision cross section under setting [24] is 384.23 ± 0.44 Å².

“IHNAENIQPGEQKYEYK [_IHNAENIQPGEQK(Succinyl)YEYK_]” had a collision cross section under setting [13] of 525.87 ± 2 Å². As for “YGRGQLNYPLPDFSK [_YGR(Methyl (R))GQLNYPLPDFSK_]”, the collision cross section under setting [17] is 496.04 ± 0.79 Å².

LDHLAEKFR [_LDHLAEK(Crotonyl)FR_]: the collision cross section by setting is: under setting [1], 378.01 ± 0.89 Å²; under setting [2], 440.09 ± 1.3 Å². Regarding “ASDTSSETVFGKR [_ASDTSSETVFGK(Trimethyl (K))R_]”, the collision cross section is reported as 414.52 ± 0.6 Å² under setting [6] and 471.76 ± 2.7 Å² under setting [7]. Take LYLPVQNK [_LY(Phospho (Y))LPVQNK_]: the collision cross section (charge state: 2, modification: Phospho (Y)) was determined as 343.68 ± 6.9 Å². On to TLQKQSVVYGGK [_TLQK(Formyl)QSVVYGGK_], for which the collision cross section under setting [5] is 387.94 ± 1 Å². In the case of “SSGPGGQNVNKVNSK [_SSGPGGQNVNK(Methyl (K))VNSK_]”, the collision cross section runs as follows: under setting [9], 397.83 ± 2.2 Å²; under setting [10], 442.38 ± 4.2 Å². On to “DAIHFYNKSLAEHR [_DAIHFYNK(Succinyl)SLAEHR_]”, for which the collision cross section runs as follows: under setting [25], 453.03 Å²; under setting [13], 520.54 ± 0.35 Å². Take LLEQKTQESQK [_LLEQK(Methyl (K))TQESQK_]: the collision cross section runs as follows: under setting [9], 404.61 ± 2.3 Å²; under setting [10], 458.64 ± 4.9 Å². In turn, “PGSPGPPGSPGPR [_PGSPGPPGSP(Hydroxyproline)GPR_]” showed a collision cross section under setting [11] of 352.39 ± 1.1 Å². Take SKLLFSNTAAQK [_SK(Succinyl)LLFSNTAAQK_]: under setting [25], the collision cross section came to 398.22 ± 0.77 Å². In the case of “KYEEIDNAPEER [_K(Dimethyl (K))YEEIDNAPEER_]”, the collision cross section runs as follows: under setting [20], 402.53 ± 1.1 Å²; under setting [21], 484.37 ± 1.6 Å².

Sequence “DYSSGFGGKYGVQADR [_DYSSGFGGK(Acetyl (K))YGVQADR_]” registered a collision cross section under setting [15] of 430.77 ± 2.2 Å².

As for MTLSVLSR [_MTLS(HexNAc (ST))VLSR_], the collision cross section under setting [16] is recorded as 352.44 ± 0.8 Å². In the case of “GDAGEPGRPGSPGK [_GDAGEPGRPGSP(Hydroxyproline)GK_]”, the collision cross section under setting [11] stood at 357.84 ± 0.8 Å². For “GEVGAGAGPGAQAGPSAKR [_GEVGAGAGPGAQAGPSAK(Methyl (K))R_]”, the collision cross section is 422.57 ± 1.8 Å² under setting [9] and 489.3 ± 3.6 Å² under setting [10]. With “GPKGQQGEPGPK [_GPKGQQGEP(Hydroxyproline)GPK_]”, the collision cross section is reported as 357.43 ± 1.4 Å² under setting [11] and 444.16 ± 2 Å² under setting [12].

In the case of “SGYSSPGSPGTPGSR [_SGYSSPGSPGTPGS(HexNAc (ST))R_]”, under setting [16], the collision cross section came out at 394.87 ± 0.13 Å². The sequence “TELLPGDRDNLAIQTR [_TELLPGDRDNLAIQT(HexNAc (ST))R_]” yielded a collision cross section (charge state: 3, modification: HexNAc (ST)) of 528.81 ± 0.18 Å². For the sequence SLKLNTAEDAK [_SLK(GlyGly (K))LNTAEDAK_], the collision cross section is, setting by setting: under setting [22], 394.52 ± 0.87 Å²; under setting [23], 458.17 ± 2 Å².

Under setting [15], “DTPTSAGPNSFNKGK [_DTPTSAGPNSFNK(Acetyl (K))GK_]” registered a collision cross section of 406.79 ± 1.5 Å². Consider “ASDTSSETVFGKR [_ASDTSSETVFGK(Gluratylation)R_]”, for which the collision cross section runs as follows: under setting [26], 400.66 ± 0.51 Å²; (charge state: 3, modification: Glutarylation) 483.77 ± 1.7 Å². Under setting [16], “LPTTAASTPDAVDK [_LPT(HexNAc (ST))TAASTPDAVDK_]” yielded a collision cross section of 413.95 ± 0.62 Å². Consider “VNVEAPDVNLEGLGGKLK [_VNVEAPDVNLEGLGGK(Dimethyl (K))LK_]”, for which the collision cross section under setting [20] worked out at 464.65 Å² and the collision cross section under setting [21] is listed as 539.12 ± 0.61 Å². Under setting [26], LQLEIDQKK [_LQLEIDQK(Gluratylation)K_] returned a collision cross section of 373.2 ± 0.7 Å².

These data come from the supplement of paper PMC10598134.
